Source: FireProtDB (doi:10.1093/protein/15.6.455)

B1: Cytochrome c-551, P00099 (parent)
chain: MKPYALLSLLATGTLLAQGAWAEDPEVLFKNKGCVACHAIDTKMVGPAYKDVAAKFAGQAGAEAELAQRIKNGSQGVWGPIPMPPNAVSDDEAQTLAKWVLSQK

Variants of: B1
Details: Pseudomonas aeruginosa (strain ATCC 15692 / DSM 22644 / CIP 104116 / JCM 14847 / LMG 12228 / 1C / PRS 101 / PAO1), pH 3.6, Thermal, DSC, sodium acetate 50 mM, reversible: yes, structure 451C, whole UniProt chain shown; for ddG of mutation (higher = less stable) / heat capacity change of unfolding / unfolding enthalpy (calorimetric): 62.6 °C

Variant	ddG of mutation (higher = less stable)	heat capacity change of unfolding	unfolding enthalpy (calorimetric)	Tm	change of melting temperature, mutant - wild type (higher = more stable)
F29A V35M V100I	-2.61 kcal/mol	0.92 kcal/mol/K	64.4 kcal/mol		
F29A V35M F56Y E65Y V100I	-4.55 kcal/mol	1.12 kcal/mol/K	71.1 kcal/mol	82.4 °C	19.8 °C
F56Y E65Y	-1.26 kcal/mol	0.74 kcal/mol/K	65.5 kcal/mol	69 °C	6.4 °C
F29A V35M	-1.88 kcal/mol	0.64 kcal/mol/K	64.2 kcal/mol	72.4 °C	9.8 °C
F29A V35M F56Y E65Y	-3.02 kcal/mol	1 kcal/mol/K	64.8 kcal/mol	77.4 °C	14.8 °C
V100I	-1.11 kcal/mol	0.73 kcal/mol/K	65.6 kcal/mol		
F56Y E65Y V100I	-2.21 kcal/mol	0.95 kcal/mol/K	67 kcal/mol	73.3 °C	10.7 °C
